Measurements from patent publication CN114075278A.
Like-named read-outs stand apart in the source and are kept apart here.

Experiments:
[1] = target: 流感A抗原; test: sandwich ELISA: antibody at 625 ng/ml captured on goat anti-mouse IgG, Flu-A antigen, HRP-labelled paired mAb
[2] = target: 流感A抗原; test: sandwich ELISA: antibody at 312.5 ng/ml captured on goat anti-mouse IgG, Flu-A antigen, HRP-labelled paired mAb
[3] = target: 流感A抗原; test: sandwich ELISA: antibody at 2500 ng/ml captured on goat anti-mouse IgG, Flu-A antigen, HRP-labelled paired mAb
[4] = target: 流感A抗原; test: sandwich ELISA: antibody at 1250 ng/ml captured on goat anti-mouse IgG, Flu-A antigen, HRP-labelled paired mAb
[5] = target: 流感A抗原; test: biolayer interferometry, AMC sensors, antibody immobilised, antigen in a dilution series
[6] = target: 流感A抗原; test: sandwich ELISA: antibody at 5000 ng/ml captured on goat anti-mouse IgG, Flu-A antigen, HRP-labelled paired mAb
[7] = target: 流感A抗原

B1: 实施例1的抗Flu-A抗体(WT) (antibody, V domains shown)
VH: EVQLQQSGPELVKPGASVKISCKASGFSFSGYYLHWVRQSPLKSLEWIGRINPYNGGTTYNQDFKGKASLTVDKSSSTAYMELHSLTSEDSAVYYCARYSSVDAMDYWGQGTSVTVSS
VL: QIVLTQSPAIMSASLGERVTMTCTGSSSVLSSYLHWYQQKPGSSPKLWIYSSSNLASGVPARFSGSGSGTSYSLTISSMEAEDAATYYCQQWHRSPWTFGGGTKLEIKR
OD450 (ref 630 nm) [1]: 0.754 OD | OD450 (ref 630 nm) [2]: 0.535 OD | OD450 (ref 630 nm) [3]: 1.39 OD | OD450 (ref 630 nm) [4]: 0.946 OD | Kd [5]: 40.5 nM | OD450 (ref 630 nm) [6]: 1.73 OD | OD450 (ref 630 nm) [7]: > 1 OD
